Experiments:
[1] = molecular target: His-YY1 ZF1+ZF2+ZF3 del382-end (UniProt P25490); assay: EMSA; conditions: EMSA: 10 mM HEPES-KOH, 12 mM Tris-HCl, 50 mM NaCl, 50 mM KCl, 5 mM MgCl2, 100 uM ZnCl2, 0.01% NP-40, 5% glycerol, 2.5 mM DTT, pH 7.4, 25 C, 2.5 nM probe; FP: …
[2] = molecular target: His-YY1 ZF1+ZF2 del352-end (UniProt P25490); assay: EMSA; conditions: EMSA: 10 mM HEPES-KOH, 12 mM Tris-HCl, 50 mM NaCl, 50 mM KCl, 5 mM MgCl2, 100 uM ZnCl2, 0.01% NP-40, 5% glycerol, 2.5 mM DTT, pH 7.4, 25 C, 2.5 nM probe; FP: …
Sequence of His-YY1 ZF1+ZF2 del352-end (P25490 1-351): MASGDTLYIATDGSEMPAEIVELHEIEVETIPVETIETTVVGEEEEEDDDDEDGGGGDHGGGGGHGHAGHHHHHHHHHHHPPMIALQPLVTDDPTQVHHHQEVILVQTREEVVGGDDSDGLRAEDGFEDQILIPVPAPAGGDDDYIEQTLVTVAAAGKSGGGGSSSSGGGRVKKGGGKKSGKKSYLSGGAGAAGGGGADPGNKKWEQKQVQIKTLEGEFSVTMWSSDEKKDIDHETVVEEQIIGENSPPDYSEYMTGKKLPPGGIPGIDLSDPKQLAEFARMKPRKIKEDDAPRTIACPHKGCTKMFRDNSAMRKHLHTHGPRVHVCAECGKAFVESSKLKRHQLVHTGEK

[3] = molecular target: T1, His-YY1 full-length (UniProt P25490 1-414); assay: EMSA; EMSA: 10 mM HEPES-KOH, 12 mM Tris-HCl, 50 mM NaCl, 50 mM KCl, 5 mM MgCl2, 100 uM ZnCl2, 0.01% NP-40, 5% glycerol, 2.5 mM DTT, pH 7.4, 25 C, 2.5 nM probe; FP: 50 mM Tris-HCl, 100 mM KCl, 2.5 mM MgCl2, 100 uM ZnCl2, pH 7.4, 25 C; conditions: protein: recombinant, tags: His, label: Cy5
T1 sequence (P25490 whole entry): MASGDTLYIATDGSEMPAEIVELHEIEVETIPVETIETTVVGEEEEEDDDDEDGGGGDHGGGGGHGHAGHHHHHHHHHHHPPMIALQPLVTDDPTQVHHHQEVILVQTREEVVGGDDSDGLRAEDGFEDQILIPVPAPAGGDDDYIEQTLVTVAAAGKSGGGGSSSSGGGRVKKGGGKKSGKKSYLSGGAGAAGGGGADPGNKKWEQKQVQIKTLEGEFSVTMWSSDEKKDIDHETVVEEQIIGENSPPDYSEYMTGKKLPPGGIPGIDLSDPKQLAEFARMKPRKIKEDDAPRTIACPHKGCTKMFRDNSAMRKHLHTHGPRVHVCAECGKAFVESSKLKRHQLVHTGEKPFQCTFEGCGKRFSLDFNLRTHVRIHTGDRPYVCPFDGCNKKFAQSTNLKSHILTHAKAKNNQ

[4] = molecular target: T1, His-YY1 full-length; assay: fluorescence polarisation; EMSA: 10 mM HEPES-KOH, 12 mM Tris-HCl, 50 mM NaCl, 50 mM KCl, 5 mM MgCl2, 100 uM ZnCl2, 0.01% NP-40, 5% glycerol, 2.5 mM DTT, pH 7.4, 25 C, 2.5 nM probe; FP: 50 mM Tris-HCl, 100 mM KCl, 2.5 mM MgCl2, 100 uM ZnCl2, pH 7.4, 25 C; conditions: protein: recombinant; tags: His; label: FAM

Sequence of His-YY1 ZF1+ZF2+ZF3 del382-end (P25490 1-381): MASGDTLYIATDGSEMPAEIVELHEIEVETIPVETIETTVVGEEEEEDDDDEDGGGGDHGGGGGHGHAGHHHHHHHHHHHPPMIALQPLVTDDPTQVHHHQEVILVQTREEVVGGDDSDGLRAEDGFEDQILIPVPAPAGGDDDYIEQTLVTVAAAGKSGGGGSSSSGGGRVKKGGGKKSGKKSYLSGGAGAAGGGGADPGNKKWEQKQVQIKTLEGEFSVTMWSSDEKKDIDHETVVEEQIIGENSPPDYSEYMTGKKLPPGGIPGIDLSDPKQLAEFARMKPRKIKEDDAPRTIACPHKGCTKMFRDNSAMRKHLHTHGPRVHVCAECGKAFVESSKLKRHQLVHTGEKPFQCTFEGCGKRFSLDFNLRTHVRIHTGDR

GGGGCCGGGGCCGGGGCCGGGGCCGGGGCCGGGGCCGGGGCCGGGGCC [(GGGGCC)8 RNA]
Kd [1]: 59 nM
Kd [2]: 129 nM

B1: FuzzyYY1-b DNA (dsDNA)
DNA 1: AGTCCTAAATGGGGGAGGAG
DNA 2: CTCCTCCCCCATTTAGGACT
Kd ([3]; blunt): 405 ± 45.9 nM

B2: FuzzyYY1-a DNA (dsDNA)
DNA 1: TGGGCAACATGGCGACACCC
DNA 2: GGGTGTCGCCATGTTGCCCA
Kd ([3]; blunt): 242 ± 21.7 nM

B3: PP7 RNA (ssRNA)
RNA: UAAAGUAAGAUAAGGCAAGACAAGGUAAAACGGAACAGAACCGAAGGGAAGAGAAGCAAAGCGAAAGGAAAUAAACAAAAGAAAAAUUCGUAGAAUUCCG
binding result [3]: binds

B4: (GGGGCC)8 RNA (ssRNA)
RNA: GGGGCCGGGGCCGGGGCCGGGGCCGGGGCCGGGGCCGGGGCCGGGGCC
Kd [3]: 46.8 ± 3.42 nM

B5: AAV P5 DNA (dsDNA)
DNA 1: AGGGTCTCCATTTTGAAGCG
DNA 2: CGCTTCAAAATGGAGACCCT
binding result ([3]; blunt): binds

B6: randomised GC-rich RNA (ssRNA)
RNA: GGGCGCGGCGCGCGGGCCGGGGCGGGCGCGCGGGCGGGGCGCGGCGCG
Kd [3]: 201 ± 17.9 nM

B7: FAM-(GGGGCC)8 RNA (ssRNA)
RNA: CGGGGCCGGGGCCGGGGCCGGGGCCGGGGCCGGGGCCGGGGCCGGGGCCG
Kd [4]: 45.3 ± 3.67 nM
